Among the data in article PMC4378939 are koff, kon and Kd values, retold here.

Experiment [1] has as its target single domain antibody against GFP with a six histidine-tag at the C-terminal (GFP-Nb) (llama). Description: SPR; GFP-Nb diluted in NTA running buffer of pH 4.0-10.5, then captured on Ni:NTA chip; 30 nM GFP as analyte; constants given for the whole pH range. Background: In SPR one partner is held on a chip, and binding of the other changes the refractive index at the surface.

For experiment [2] the target is unchanged. Briefly: SPR; GFP-Nb captured on Ni:NTA chip; 30 nM GFP diluted in NTA running buffer with different NaCl concentrations (up to 1 M) as analyte; constants given for all NaCl concentrations.
The target is the same in experiment [3]. Description: SPR; GFP-Nb heated for 30 min at 25-100°C and cooled 30 min at room temperature, then captured on Ni:NTA chip; 30 nM GFP as analyte; NTA running buffer, 25°C; constants given for the whole temperature range.
The target is the same in experiment [4]. Description: SPR; BIAcore X100, 25°C; GFP-Nb amine-coupled to a CM5 chip (~2500 R.U.), GFP as analyte (0.2-1000 nM; 10 nM with dissociation followed for 36000 s for koff); 10 mM HEPES pH 7.4, 0.15 M NaCl, 0.05% tween 20; KD from end-point response (Hill coefficient 1).
The target is the same in experiment [5]. Description: SPR; BIAcore X100, 25°C; GFP-Nb (~3 nM, ~50 R.U.) captured by its His tag on Ni:NTA chip, GFP as analyte (0.1-1000 nM), 30 μl/min; 10 mM HEPES pH 7.4, 0.15 M NaCl, 50 μM EDTA, 0.05% tween 20; kon and koff from 1:1 fit, KD from end-point response (Hill equation).
Experiment [6] has the same target. Description: SPR; BIAcore X100, 25°C; GFP-Nb captured by its His tag on anti-polyhistidine antibody amine-coupled to a CM5 chip, GFP as analyte, 30 μl/min; 10 mM HEPES pH 7.4, 0.15 M NaCl, 0.05% tween 20; kon and koff from 1:1 fit, KD from end-point response (Hill equation).

Sequence of single domain antibody against GFP with a six histidine-tag at the C-terminal (GFP-Nb) (llama) (heavy, as listed by the source): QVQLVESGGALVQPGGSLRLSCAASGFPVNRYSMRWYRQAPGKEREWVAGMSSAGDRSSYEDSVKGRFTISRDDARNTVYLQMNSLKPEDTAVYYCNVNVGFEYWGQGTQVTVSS

Take “Green Fluorescent Protein (GFP) (from UniProt P42212 1-238) (natural protein)”: the koff amounted to 0.00064 s⁻¹ in experiment [1]; 0.00063 s⁻¹ in experiment [2]; 0.00063 s⁻¹ in experiment [3]; 1.4e-05 s⁻¹ in experiment [4]; 0.00071 s⁻¹ in experiment [5]; 0.00029 s⁻¹ in experiment [6]. In addition, the kon in experiment [1] came out at 1.4e+06 M⁻¹ s⁻¹; in experiment [2], 1.5e+06 M⁻¹ s⁻¹; in experiment [3] it was 1.5e+06 M⁻¹ s⁻¹; in experiment [5] it was 1.1e+06 M⁻¹ s⁻¹; in experiment [6], 1e+06 M⁻¹ s⁻¹. Moreover, the values for the dissociation constant (Kd) in experiment [4], in experiment [5] and in experiment [6] were 9.6 nM, 6.1 nM and 5.5 nM, respectively.

For orientation: koff means the first-order rate constant of dissociation. A high value points to a short-lived complex. The term kon denotes the second-order rate constant of association. Broadly, the Kd is the free concentration of one partner at which half of the binding sites on the other are occupied at equilibrium, for simple one-to-one binding. Higher therefore signals a looser complex.
